Among the data in the supplement of paper PMC10126150 are switch fluorescence ratio values, retold here.

± gives the standard deviation of the averaged measurements.

This data set concerns ATP. As to the kind of experiment: switch fluorescence ratio, 500 uM ATP over buffer (Cy3 cluster intensity, sum of 5 cycles each) (fold (ratio)); higher = stronger signal-on switching upon ATP binding; sequences stand for … in TCGTCGGCAGCGTCAGATGTGTATAAGAGACAGTTTTTTTTTTTTTTTTTTTTTTTTT…TC. As to conditions: aptamer strand: ATP DNA aptamer (quencher-CACCTGGGGGAGTATTGCGGAGGAAGG + anchor), 100 nM annealed; ATP concentration: 500 uM. The procedure, abridged: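 Clusters carrying Cy3-labelled switching strands on a modified Illumina MiSeq flow-cell were annealed to 100 nM quencher-labelled ATP aptamer and imaged in selection buffer. They were imaged again after 15 min with 500 uM ATP at 22 °C, over five buffer/ATP cycles with NaOH stripping and re-annealing in between. For each cluster, the fluorescence ratio is the summed Cy3 intensity of the target cycles divided by that of the buffer cycles, averaged per switch-domain sequence. Clusters outside 100-1000 RFU were left out.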
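Further: ATP exposure 15 min at 22 °C before imaging.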

On to CCAACAGGCC, for which the switch fluorescence ratio amounted to 1.14 ± 0.12.
The result for CCAACTTTTT reads 0.962 ± 0.014; that for CCAAGAGGGC, 1.04 ± 0.023.
For CCAAGTTCGG, the switch fluorescence ratio came to 1.02 ± 0.011.
The result for CCAATGAGTG reads 1.01 ± 0.023.
As to CCAATGCTGT, the switch fluorescence ratio is 1.115 ± 0.0091.
For CCAATGGAGG the value was 0.994 ± 0.034; for CCAATGGGAA, 1.01 ± 0.025.
The result for CCACAGCCGG reads 1.23 ± 0.13; that for CCACATTGCT, 1.21 ± 0.017; that for CCACATTGTA, 1.01 ± 0.018.
Turning to CCACGATTAC, the switch fluorescence ratio was 3.44 ± 1.3.
The result for CCACGGGATG reads 1.09 ± 0.03; that for CCACGTCAAC, 1.59 ± 0.052.
Consider CCACGTGGGC, for which the switch fluorescence ratio came to 1.07 ± 0.14.
Take CCACTGGTGT: the switch fluorescence ratio was found to be 3.92 ± 0.56.
With CCACTTACGG, the switch fluorescence ratio worked out at 1.6327 ± 0.00046.
For CCACTTAGGG the value was 1.01 ± 0.021; for CCACTTGCTA, 1.16 ± 0.037; for CCAGAACCGG, 1.01 ± 0.0022.
For CCAGAAGGGG the value was 1.52 ± 0.89; for CCAGACGGGG, 0.986 ± 0.029; for CCAGAGGAGG, 1.01 ± 0.076.
Consider CCAGATATGG, for which the switch fluorescence ratio was 1.01 ± 0.041.
On to CCAGATTGGG, for which the switch fluorescence ratio came to 1.004 ± 0.0052.
With CCAGCAAGAT, the switch fluorescence ratio turned out to be 4.63 ± 0.51.
For CCAGCAGCGG the value was 1.12 ± 0.063; for CCAGCGAATG, 1.05 ± 0.028; for CCAGCGTGGT, 1.1 ± 0.019.
Turning to CCAGCTGGCT, the switch fluorescence ratio stood at 1.026 ± 0.0063.
As for CCAGCTTTGC, the switch fluorescence ratio is 1.02 ± 0.057.
As for CCAGGAGGGA, the switch fluorescence ratio is 1.002 ± 0.0041.
With CCAGGAGGGG, the switch fluorescence ratio was determined as 1.04 ± 0.012.
Turning to CCAGGCGATT, the switch fluorescence ratio was determined as 1.07 ± 0.095.
For CCAGGCTAAT the value was 1.03 ± 0.014; for CCAGGGAGGG, 1.06 ± 0.051.
For CCAGGGATCA the value was 1.049 ± 0.0023.
Consider CCAGGGCGCG, for which the switch fluorescence ratio worked out at 1.004 ± 0.002.
The result for CCAGGGGTAA reads 1.17 ± 0.055; that for CCAGGGGTCT, 1.22 ± 0.028.
The result for CCAGGGGTTT reads 2.66 ± 2.4; that for CCAGGTCTAT, 1.08 ± 0.018.
For the sequence CCAGTATTTT, the switch fluorescence ratio was 0.999 ± 0.015.
CCAGTCATCA: the switch fluorescence ratio stood at 0.9961 ± 0.0014.
As for CCAGTCGGAG, the switch fluorescence ratio stood at 0.9776 ± 0.0038.
The result for CCAGTGACAT reads 1.03 ± 0.028.
In the case of CCAGTGGCTA, the switch fluorescence ratio came to 1.016 ± 0.0033.
As to CCAGTGTCGG, the switch fluorescence ratio amounted to 0.969 ± 0.04.
For CCAGTTACGG the value was 1.032 ± 0.01; for CCAGTTAGCC, 1.04 ± 0.13; for CCAGTTTCGG, 0.983 ± 0.049.
The result for CCAGTTTGGA reads 0.998 ± 0.017; that for CCATACGTTG, 1.037 ± 0.0051.
For CCATACGTTT the value was 1.02 ± 0.046; for CCATATCTAT, 1 ± 0.029.
Turning to CCATCAGGG, the switch fluorescence ratio was 1.16 ± 0.042.
The result for CCATCTGCGC reads 1.82 ± 0.074; that for CCATGCAGGC, 1.28 ± 0.13.
In the case of CCATGGATCA, the switch fluorescence ratio was 0.9992 ± 0.0091.
With CCATGGGTAG, the switch fluorescence ratio was found to be 0.974 ± 0.056.
The result for CCATGGTAGT reads 1.028 ± 0.0029.
Take CCATGGTTAC: the switch fluorescence ratio stood at 2.67 ± 2.3.
With CCATGTAAGA, the switch fluorescence ratio was 1.018 ± 0.0091.
For CCATGTGTTG the value was 1.03 ± 0.043.
For CCATGTTGAG the value was 0.997 ± 0.0086; for CCATGTTTGT, 1.01 ± 0.028.
